Experimental data taken from article doi:10.1101/582635.

Key:
[1] = target: human 40S ribosomal subunit lacking RACK1 (ΔRACK1 40S) (human (endogenous in HAP1)) (UniProt P23396); test: native gel or EMSA
[2] = target: human 40S ribosomal subunit lacking RACK1 (ΔRACK1 40S) (human (endogenous in HAP1)) (UniProt P23396); test: FRET or BRET

Molecule	t1/2 (half-life on the 40S subunit) [1] [h]	kobs (fast phase, 75 nM) [2] [s⁻¹]	kon (fast phase) [2] [M⁻¹ s⁻¹]
RACK1-ybbR expressed in ΔRACK1 HAP1 cells (native, ribosome-bound) (from UniProt P63244 1-317) (natural protein)	15		
recombinant S. cerevisiae Asc1p-ybbR (RACK1 ortholog) (natural protein) MASNEVLVLRGTLEGHNGWVTSLATSAGQPNLLLSASRDKTLISWKLTGDDQKFGVPVRSFKGHSHIVQDCTLTADGAYALSASWDKTLRLWDVATGETYQRFVGHKSDVMSVDIDKKASMIISGSRDKTIKVWTIKGQCLATLLGHNDWVSQVRVVPNEKADDDSVTIISAGNDKMVKAWNLNQFQIEADFIGHNSNINTLTASPDGTLIASAGKDGEIMLWNLAAKKAMYTLSAQDEVFSLAFSPNRYWLAAATATGIKVFSLDPQYLVDDLRPEFAGYSKAAEPHAVSLAWSADGQTLFAGYTDNVIRVWQVMTAN		0.2	2e+06
